Test [1] has as its target human TGR1 (NMUR2) (human). Briefly: competition with 125I-NMU8, human TGR1/CHO membrane fraction, filter binding. How it is done: (§1) The protein concentrations in the FM3 and TGR1 membrane fractions were 12 and 22 μg/ml, respectively.
(§2) Namely, dilution strings of NMU derivatives and PEG conjugates were provided and diluted membrane fraction solutions (200 μl) were added. The mixture was thoroughly blended with a Vortex and the labeled ligand 2 μl (final concentration […]) was added to carry out the reaction at 25° C. for 60 min. According to the aforementioned operations, the amount of binding of the labeled ligand remaining in the filter was measured and the IC50 values were calculated using graph pad PRISM (FIG. 4A (FM3 receptor binding), FIG. 4B (TGR1 receptor binding), FIG. 4C (FM3 receptor binding), FIG. 4D (TGR1 receptor binding) Table 9).

The target in test [2] is T1, human FM3 (NMUR1) (human).
T1 chain: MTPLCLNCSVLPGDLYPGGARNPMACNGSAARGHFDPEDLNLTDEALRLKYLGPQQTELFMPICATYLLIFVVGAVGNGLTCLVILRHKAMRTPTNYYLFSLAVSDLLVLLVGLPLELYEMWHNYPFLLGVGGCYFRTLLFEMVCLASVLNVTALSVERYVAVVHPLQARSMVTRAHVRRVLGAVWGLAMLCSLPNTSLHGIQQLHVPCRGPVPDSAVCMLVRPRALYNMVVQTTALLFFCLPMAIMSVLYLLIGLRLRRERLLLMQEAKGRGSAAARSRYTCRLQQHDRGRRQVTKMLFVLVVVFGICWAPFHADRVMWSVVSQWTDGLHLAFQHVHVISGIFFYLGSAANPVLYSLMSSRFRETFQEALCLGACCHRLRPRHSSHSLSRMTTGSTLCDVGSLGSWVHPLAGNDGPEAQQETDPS
Briefly: competition with 125I-NMU8, human FM3/CHO membrane fraction, filter binding. How it is done:
as §1, §2

The target in test [3] is T1, human FM3 (NMUR1). As to the kind of experiment: competition with 125I-NMU8, membrane fraction, filter binding; only one value in the row, read as the FM3 column. How it is done:
as §1, §2

Test [4] addresses human TGR1 (NMUR2) (human). Briefly: Scatchard analysis, radioligand filter binding, human TGR1/CHO membrane fraction. How it is done: as §1
The target in test [5] is T1, human FM3 (NMUR1). Briefly: Scatchard analysis, radioligand filter binding, human FM3/CHO membrane fraction. How it is done:
as §1

*1 amine or outer side, *2 acyl side, *3 side chain or, on linkers, in order; H or OH if unused. Primed or numbered codes have the meaning given here. Where no end group is shown, it is not given here. The star is where a group is joined. KMUS = cross-linking reagent joining N-terminal amine to thiol PEG, O=C1CC([*:3])C(=O)N1CCCCCCCCCCC(=O)[*:2]; GMBS = cross-linking reagent joining N-terminal amine to thiol PEG, O=C1CC([*:3])C(=O)N1CCCC(=O)[*:2]; SMCC = cross-linking reagent joining N-terminal amine to thiol PEG; Hexanoyl(6-succinimido-3yl) = O=C1CC([*:1])C(=O)N1CCCCCC(=O)[*:2]; AMBz = omega-aminocarboxylic acid linker (structure only drawn); AU″ = omega-aminocarboxylic acid linker (structure only drawn); ACP = omega-aminocarboxylic acid linker; Traut's reagent = N=C(CCCS)*; AB = not defined here; AD = not defined here; AP = not defined here; AU = not defined here

As a reminder, the IC50 is the concentration needed to halve the response being measured. High values mean a need for much substance, low ones inhibition by little substance. The Kd is the constant that tells how readily two partners part at equilibrium. High values mean a looser complex, low ones a tighter complex.

Chain of human TGR1 (NMUR2) (human) (chain, as listed by the source): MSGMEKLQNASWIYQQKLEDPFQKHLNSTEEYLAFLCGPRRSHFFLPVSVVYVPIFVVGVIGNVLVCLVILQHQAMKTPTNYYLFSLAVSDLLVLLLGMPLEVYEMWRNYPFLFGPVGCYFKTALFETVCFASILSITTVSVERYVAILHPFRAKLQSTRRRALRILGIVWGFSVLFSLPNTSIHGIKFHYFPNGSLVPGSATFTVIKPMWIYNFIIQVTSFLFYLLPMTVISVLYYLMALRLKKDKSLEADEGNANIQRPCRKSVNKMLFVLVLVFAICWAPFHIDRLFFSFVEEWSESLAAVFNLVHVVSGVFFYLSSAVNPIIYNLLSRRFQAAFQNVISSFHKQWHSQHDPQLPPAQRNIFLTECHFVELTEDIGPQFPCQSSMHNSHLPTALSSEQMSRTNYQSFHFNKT

B1: PEG30k(KMUS)-NMU-8 (peptide)
peptide: {PEG 30 kDa-KMUS}-YFLFRPRN-NH2
Regarding B1, the IC50 with human TGR1 (NMUR2) [1] amounted to 26 nM; with human FM3 (NMUR1) [2], 51 nM.

B2: PEG30k(Traut)-NMU-8 (peptide)
peptide: {PEG‑maleimide 30 kDa-Traut's reagent}-YFLFRPRN-NH2
B2 gave an IC50 with human FM3 (NMUR1) [2] of 6.4 nM.

B3: (PEG20k)2(ACP)-NMU-8 (peptide)
peptide: {(PEG20k)2-ACP}-YFLFRPRN-NH2
With B3, the IC50 with human TGR1 (NMUR2) [1] worked out at 420 nM; with human FM3 (NMUR1) [2], 280 nM.

B4: (PEG20k)2-NMU-8 (peptide)
peptide: {(PEG20k)2}-YFLFRPRN-NH2
For B4, the IC50 with human TGR1 (NMUR2) [1] stood at 210 nM; in the test with human FM3 (NMUR1) [2] it was 270 nM.

B5: PEG30k(NHAc)-Cys-NMU-8 (peptide)
peptide: C(PEG 30 kDa)FFLFRPRN-NH2
As for B5, the IC50 came out at 9.1 nM with human TGR1 (NMUR2) [1] and 18 nM with human FM3 (NMUR1) [2].

B6: PEG30k(SMCC)-NMU-8 (peptide)
peptide: {PEG 30 kDa-SMCC}-YFLFRPRN-NH2
Turning to B6, the IC50 in the test with human TGR1 (NMUR2) [1] came to 4.3 nM; with human FM3 (NMUR1) [2] it was 4.5 nM.

B7: PEG30k-Cys-NMU-8 (peptide)
peptide: C(PEG 30 kDa)FFLFRPRN-NH2
Take B7: the IC50 with human TGR1 (NMUR2) [1] worked out at 1.9 nM; with human FM3 (NMUR1) [2] it was 2.3 nM.

B8: PEG30k(NH-AP)-NMU-8 (peptide)
peptide: {PEG 30 kDa-AP}-YFLFRPRN-NH2
modifications: reading uncertain; also: printed as PEG30k(NH-AP)-NMU-8
B8: the IC50 in the test with human TGR1 (NMUR2) [1] came out at 6.9 nM; in the test with human FM3 (NMUR1) [2], 6.3 nM.

B9: (PEG20k)2(AP)-NMU-8 (peptide)
peptide: {(PEG20k)2-AP}-YFLFRPRN-NH2
modifications: reading uncertain; also: printed as (PEG20k)2(AP)-NMU-8
As for B9, the IC50 with human FM3 (NMUR1) [3] came out at 230 nM.

B10: PEG30k(NH-AB)-NMU-8 (peptide)
peptide: {PEG 30 kDa-AB}-YFLFRPRN-NH2
modifications: reading uncertain; also: PEG attached by reductive amination (NH link) to linker, printed as Try-Phe-Leu-Phe-Arg-Pro-Arg-Asn-NH2
Consider B10, for which the IC50 in the test with human TGR1 (NMUR2) [1] was determined as 2.5 nM; in the test with human FM3 (NMUR1) [2] it was 2.4 nM.

B11: (PEG20k)2(AMBz)-NMU-8 (peptide)
peptide: {(PEG20k)2-AMBz}-YFLFRPRN-NH2
For the molecule B11, the IC50 with human TGR1 (NMUR2) [1] was 320 nM; with human FM3 (NMUR1) [2], 210 nM.

B12: (PEG20k)2(AU)-NMU-8 (peptide)
peptide: {(PEG20k)2-AU}-YFLFRPRN-NH2
modifications: reading uncertain; also: printed as (PEG20k)2(AU)-NMU-8
Take B12: the IC50 is 560 nM with human TGR1 (NMUR2) [1] and 330 nM with human FM3 (NMUR1) [2].

B13: PEG30k(AB)-NMU-8 (peptide)
peptide: {PEG 30 kDa-AB}-YFLFRPRN-NH2
modifications: reading uncertain; also: printed as PEG30k(AB)-NMU-8
In the test with human FM3 (NMUR1) [3], B13 yielded an IC50 of 82 nM.

B14: 125I-NMU8 (radiation labeled ligand) (peptide)
peptide: YFLFRPRN-NH2
modifications: also: 125I label (position not given here)
As for B14, the Kd with human TGR1 (NMUR2) [4] worked out at 135000 nM; with human FM3 (NMUR1) [5] it was 164000 nM.

B15: (PEG20k)2(AB)-NMU-8 (peptide)
peptide: {(PEG20k)2-AB}-YFLFRPRN-NH2
modifications: reading uncertain; also: printed as (PEG20k)2(AB)-NMU-8
Consider B15, for which the IC50 in the test with human FM3 (NMUR1) [3] amounted to 380 nM.

B16: PEG30k-NMU-8 (peptide)
peptide: {PEG 30 kDa}-YFLFRPRN-NH2
As for B16, the figures for the IC50 with human TGR1 (NMUR2) [1] and in the test with human FM3 (NMUR1) [2] were 66 nM and 5.7 nM, respectively.

B17: PEG30k-NH-NMU-8 (peptide)
peptide: {PEG 30 kDa}-YFLFRPRN-NH2
As for B17, the IC50 in the test with human TGR1 (NMUR2) [1] and in the test with human FM3 (NMUR1) [2] was 11 nM throughout.

B18: PEG30k(AU)-NMU-8 (peptide)
peptide: {PEG 30 kDa-AU″}-YFLFRPRN-NH2
Take B18: the IC50 stood at 54 nM with human TGR1 (NMUR2) [1] and 60 nM with human FM3 (NMUR1) [2].

B19: PEG30k(NH-AD)-NMU-8 (peptide)
peptide: {PEG 30 kDa-AD}-YFLFRPRN-NH2
modifications: reading uncertain; also: PEG-aldehyde bound by reductive amination (NH linkage), printed as PEG30k(NH-AD)-NMU-8
Turning to B19, the results for the IC50 with human TGR1 (NMUR2) [1] and in the test with human FM3 (NMUR1) [2] were 32 nM and 7 nM, respectively.

B20: PEG30k(AMBz)-NMU-8 (peptide)
peptide: {PEG 30 kDa-AMBz}-YFLFRPRN-NH2
With B20, the IC50 amounted to 110 nM in the test with human TGR1 (NMUR2) [1] and 75 nM in the test with human FM3 (NMUR1) [2].

B21: PEG30k(ACP)-NMU-8 (peptide)
peptide: {PEG30k-ACP}-YFLFRPRN-NH2
B21 came in with an IC50 in the test with human FM3 (NMUR1) [3] of 59 nM.

B22: NMU-8 (peptide)
peptide: YFLFRPRN-NH2
As to B22, the values for the IC50 with human TGR1 (NMUR2) [1] and in the test with human FM3 (NMUR1) [2] were 0.089 nM and 0.19 nM, respectively.

B23: PEG30k(AP)-NMU-8 (peptide)
peptide: {PEG 30 kDa-AP}-YFLFRPRN-NH2
modifications: reading uncertain; also: printed as PEG30k(AP)-NMU-8
In turn, B23 gave an IC50 with human FM3 (NMUR1) [3] of 64 nM.

B24: PEG30k(NH-AMBz)-NMU-8 (peptide)
peptide: {PEG 30 kDa-AMBz}-YFLFRPRN-NH2
modifications: also: PEG attached by reductive amination (NH link) to linker
As to B24, the IC50 with human TGR1 (NMUR2) [1] is 9.4 nM; in the test with human FM3 (NMUR1) [2], 6.7 nM.

B25: PEG30k(NH-AU)-NMU-8 (peptide)
peptide: {PEG 30 kDa-AU″}-YFLFRPRN-NH2
On to B25, for which the IC50 in the test with human TGR1 (NMUR2) [1] is 22 nM; with human FM3 (NMUR1) [2], 18 nM.

B26: PEG30k(GMBS)-NMU-8 (peptide)
peptide: {PEG 30 kDa-GMBS}-YFLFRPRN-NH2
As to B26, the IC50 was determined as 4.1 nM with human TGR1 (NMUR2) [1] and 7.5 nM with human FM3 (NMUR1) [2].

B27: PEG30k(AD)-NMU-8 (peptide)
peptide: {PEG 30 kDa-AD}-YFLFRPRN-NH2
modifications: reading uncertain; also: printed as PEG30k(AD)-NMU-8
On to B27, for which the IC50 in the test with human TGR1 (NMUR2) [1] is 120 nM; in the test with human FM3 (NMUR1) [2], 130 nM.

B28: (PEG20k)2(AD)-NMU-8 (peptide)
peptide: {(PEG20k)2-AD}-YFLFRPRN-NH2
modifications: reading uncertain; also: printed as (PEG20k)2(AD)-NMU-8
B28: the IC50 with human TGR1 (NMUR2) [1] is 730 nM; in the test with human FM3 (NMUR1) [2], 380 nM.

B29: PEG30k(NH-ACP)-NMU-8 (peptide)
peptide: {PEG 30 kDa-ACP}-YFLFRPRN-NH2
modifications: also: PEG-aldehyde bound by reductive amination (NH linkage)
As for B29, the figures for the IC50 in the test with human TGR1 (NMUR2) [1] and with human FM3 (NMUR1) [2] were 7.9 nM and 7.3 nM, respectively.

B30: PEG30k(EMCS)-NMU-8 (peptide)
peptide: {PEG 30 kDa-Hexanoyl(6-succinimido-3yl)}-YFLFRPRN-NH2
For B30, the IC50 with human TGR1 (NMUR2) [1] and in the test with human FM3 (NMUR1) [2] was 11 nM throughout.

These data come from US20100286035A1, “NEUROMEDIN U DERIVATIVE” (Takeda Pharmaceutical Company Limited, published 2010).
